The source of these data is the MegaScale stability set (Tsuboyama et al. 2023).

B1: EEHEE_rd3_0130 (parent)
chain: TKIIVNGKTFTAPTEEEAQKIAEKLAKKAGLTVHKKNGTFELK

In this series the parent is B1. Description: folding stability dG (cDNA display proteolysis); higher = more stable. Conditions: PBS, room temperature.
On to TSIIVNGKTFTAPTEEEAQKIAEKLAKKAGLTVHKKNGTFELK [K2S], for which the “folding stability dG” value turned out to be 0.364 kcal/mol. Consider TYIIVNGKTFTAPTEEEAQKIAEKLAKKAGLTVHKKNGTFELK [K2Y], for which the “folding stability dG” value was 0.641 kcal/mol.

Regarding TDIIVNGKTFTAPTEEEAQKIAEKLAKKAGLTVHKKNGTFELK [K2D], the “folding stability dG” value stood at 0.156 kcal/mol. Regarding TIIIVNGKTFTAPTEEEAQKIAEKLAKKAGLTVHKKNGTFELK [K2I], the “folding stability dG” value stood at 0.742 kcal/mol.

On to TRIIVNGKTFTAPTEEEAQKIAEKLAKKAGLTVHKKNGTFELK [K2R], for which the “folding stability dG” value was 0.793 kcal/mol.

TQIIVNGKTFTAPTEEEAQKIAEKLAKKAGLTVHKKNGTFELK [K2Q]: the “folding stability dG” value was 0.574 kcal/mol. With TMIIVNGKTFTAPTEEEAQKIAEKLAKKAGLTVHKKNGTFELK [K2M] the figure was 0.746 kcal/mol; with TNIIVNGKTFTAPTEEEAQKIAEKLAKKAGLTVHKKNGTFELK [K2N], 0.108 kcal/mol; with TCIIVNGKTFTAPTEEEAQKIAEKLAKKAGLTVHKKNGTFELK [K2C], 1.16 kcal/mol.

For the variant THIIVNGKTFTAPTEEEAQKIAEKLAKKAGLTVHKKNGTFELK [K2H], the “folding stability dG” value was determined as 0.273 kcal/mol. With TPIIVNGKTFTAPTEEEAQKIAEKLAKKAGLTVHKKNGTFELK [K2P], the “folding stability dG” value came out at 0.169 kcal/mol. With TGIIVNGKTFTAPTEEEAQKIAEKLAKKAGLTVHKKNGTFELK [K2G] the figure was -0.359 kcal/mol; with TAIIVNGKTFTAPTEEEAQKIAEKLAKKAGLTVHKKNGTFELK [K2A], 0.458 kcal/mol; with TTIIVNGKTFTAPTEEEAQKIAEKLAKKAGLTVHKKNGTFELK [K2T], 0.448 kcal/mol. With TVIIVNGKTFTAPTEEEAQKIAEKLAKKAGLTVHKKNGTFELK [K2V] the figure was 0.501 kcal/mol; with TEIIVNGKTFTAPTEEEAQKIAEKLAKKAGLTVHKKNGTFELK [K2E], 0.085 kcal/mol; with TLIIVNGKTFTAPTEEEAQKIAEKLAKKAGLTVHKKNGTFELK [K2L], 0.93 kcal/mol. As to TFIIVNGKTFTAPTEEEAQKIAEKLAKKAGLTVHKKNGTFELK [K2F], the “folding stability dG” value worked out at 0.565 kcal/mol. Then TWIIVNGKTFTAPTEEEAQKIAEKLAKKAGLTVHKKNGTFELK [K2W], with 0.519 kcal/mol. With DKIIVNGKTFTAPTEEEAQKIAEKLAKKAGLTVHKKNGTFELK [T1D] the figure was -0.934 kcal/mol. Then LKIIVNGKTFTAPTEEEAQKIAEKLAKKAGLTVHKKNGTFELK [T1L], with 0.508 kcal/mol; and VKIIVNGKTFTAPTEEEAQKIAEKLAKKAGLTVHKKNGTFELK [T1V], with 1.28 kcal/mol; and CKIIVNGKTFTAPTEEEAQKIAEKLAKKAGLTVHKKNGTFELK [T1C], with 0.97 kcal/mol. Turning to PKIIVNGKTFTAPTEEEAQKIAEKLAKKAGLTVHKKNGTFELK [T1P], the “folding stability dG” value stood at 0.553 kcal/mol. Then GKIIVNGKTFTAPTEEEAQKIAEKLAKKAGLTVHKKNGTFELK [T1G], with 0.627 kcal/mol. Take NKIIVNGKTFTAPTEEEAQKIAEKLAKKAGLTVHKKNGTFELK [T1N]: the “folding stability dG” value was 0.378 kcal/mol. Turning to MKIIVNGKTFTAPTEEEAQKIAEKLAKKAGLTVHKKNGTFELK [T1M], the “folding stability dG” value was 0.565 kcal/mol. As to RKIIVNGKTFTAPTEEEAQKIAEKLAKKAGLTVHKKNGTFELK [T1R], the “folding stability dG” value was 0.322 kcal/mol. Then FKIIVNGKTFTAPTEEEAQKIAEKLAKKAGLTVHKKNGTFELK [T1F], with 2.15 kcal/mol; and QKIIVNGKTFTAPTEEEAQKIAEKLAKKAGLTVHKKNGTFELK [T1Q], with 0.151 kcal/mol.

As for EKIIVNGKTFTAPTEEEAQKIAEKLAKKAGLTVHKKNGTFELK [T1E], the “folding stability dG” value was -0.989 kcal/mol. For the variant IKIIVNGKTFTAPTEEEAQKIAEKLAKKAGLTVHKKNGTFELK [T1I], the “folding stability dG” value is 1.37 kcal/mol. On to HKIIVNGKTFTAPTEEEAQKIAEKLAKKAGLTVHKKNGTFELK [T1H], for which the “folding stability dG” value turned out to be 1.05 kcal/mol. In the case of YKIIVNGKTFTAPTEEEAQKIAEKLAKKAGLTVHKKNGTFELK [T1Y], the “folding stability dG” value was 2.19 kcal/mol. As for KKIIVNGKTFTAPTEEEAQKIAEKLAKKAGLTVHKKNGTFELK [T1K], the “folding stability dG” value is 0.145 kcal/mol. As for WKIIVNGKTFTAPTEEEAQKIAEKLAKKAGLTVHKKNGTFELK [T1W], the “folding stability dG” value stood at 2.99 kcal/mol. Take SKIIVNGKTFTAPTEEEAQKIAEKLAKKAGLTVHKKNGTFELK [T1S]: the “folding stability dG” value worked out at 0.636 kcal/mol. With AKIIVNGKTFTAPTEEEAQKIAEKLAKKAGLTVHKKNGTFELK [T1A] the figure was 0.581 kcal/mol; with TKIMVNGKTFTAPTEEEAQKIAEKLAKKAGLTVHKKNGTFELK [I4M], 0.561 kcal/mol. Then TKINVNGKTFTAPTEEEAQKIAEKLAKKAGLTVHKKNGTFELK [I4N], with -0.074 kcal/mol; and TKILVNGKTFTAPTEEEAQKIAEKLAKKAGLTVHKKNGTFELK [I4L], with 0.583 kcal/mol.

Regarding TKIKVNGKTFTAPTEEEAQKIAEKLAKKAGLTVHKKNGTFELK [I4K], the “folding stability dG” value turned out to be 0.465 kcal/mol.

Take TKIHVNGKTFTAPTEEEAQKIAEKLAKKAGLTVHKKNGTFELK [I4H]: the “folding stability dG” value was 0.173 kcal/mol.

In the case of TKIEVNGKTFTAPTEEEAQKIAEKLAKKAGLTVHKKNGTFELK [I4E], the “folding stability dG” value is -0.066 kcal/mol. Turning to TKIAVNGKTFTAPTEEEAQKIAEKLAKKAGLTVHKKNGTFELK [I4A], the “folding stability dG” value is -0.213 kcal/mol.

Take TKIDVNGKTFTAPTEEEAQKIAEKLAKKAGLTVHKKNGTFELK [I4D]: the “folding stability dG” value is -0.441 kcal/mol. For the variant TKIGVNGKTFTAPTEEEAQKIAEKLAKKAGLTVHKKNGTFELK [I4G], the “folding stability dG” value is -0.461 kcal/mol. Then TKIFVNGKTFTAPTEEEAQKIAEKLAKKAGLTVHKKNGTFELK [I4F], with 0.575 kcal/mol; and TKQIVNGKTFTAPTEEEAQKIAEKLAKKAGLTVHKKNGTFELK [I3Q], with -0.664 kcal/mol; and TKWIVNGKTFTAPTEEEAQKIAEKLAKKAGLTVHKKNGTFELK [I3W], with -0.228 kcal/mol. In the case of TKMIVNGKTFTAPTEEEAQKIAEKLAKKAGLTVHKKNGTFELK [I3M], the “folding stability dG” value was -0.368 kcal/mol. Then TKLIVNGKTFTAPTEEEAQKIAEKLAKKAGLTVHKKNGTFELK [I3L], with -0.098 kcal/mol; and I3D, with -0.633 kcal/mol.

Turning to TKYIVNGKTFTAPTEEEAQKIAEKLAKKAGLTVHKKNGTFELK [I3Y], the “folding stability dG” value amounted to 0.08 kcal/mol. With TKSIVNGKTFTAPTEEEAQKIAEKLAKKAGLTVHKKNGTFELK [I3S] the figure was -0.742 kcal/mol. With TKPIVNGKTFTAPTEEEAQKIAEKLAKKAGLTVHKKNGTFELK [I3P] the figure was -0.552 kcal/mol.
